Reference: patent publication US20180071366A1
Numbered stars: 1 amine (or outer) side, 2 acyl side, 3 side chain; on linkers, the order of the positions; unused ones are H or OH. Bridge positions count the residues as written; N and C are the ends. Square brackets hold non-standard residues; d marks the D form. * marks the point of attachment. C20 diacid = O=C(O)CCCCCCCCCCCCCCCCCCC(=O)*; γGlu = O=C(O)[C@H](CCC(=O)[*:2])N[*:1]; Hyp = O=C(O)[C@@H]1C[C@@H](O)CN1; NMeI = CC[C@H](C)[C@H](NC)C(=O)O; Aad = N[C@@H](CCCC(=O)O)C(=O)O; Orn = NCCC[C@H](N)C(=O)O; Sar = CNCC(=O)O

B1: Compound 20 (peptide)
peptide: {C20 diacid-γGlu}-RDGTAT[Orn]ATERLA[Aad]FLQRSSF[Sar]A[NMeI]LSSTEVGSNT[Hyp]-NH2
modifications: lactam 2-7
SMILES: CC[C@H](C)[C@@H](C(=O)N[C@@H](CC(C)C)C(=O)N[C@@H](CO)C(=O)N[C@@H](CO)C(=O)N[C@H](C(=O)N[C@@H](CCC(=O)O)C(=O)N[C@H](C(=O)NCC(=O)N[C@@H](CO)C(=O)N[C@@H](CC(N)=O)C(=O)N[C@H](C(=O)N1C[C@H](O)C[C@H]1C(N)=O)[C@@H](C)O)C(C)C)[C@@H](C)O)N(C)C(=O)[C@H](C)NC(=O)CN(C)C(=O)[C@H](Cc1ccccc1)NC(=O)[C@H](CO)NC(=O)[C@H](CO)NC(=O)[C@H](CCCNC(=N)N)NC(=O)[C@H](CCC(N)=O)NC(=O)[C@H](CC(C)C)NC(=O)[C@H](Cc1ccccc1)NC(=O)[C@H](CCCC(=O)O)NC(=O)[C@H](C)NC(=O)[C@H](CC(C)C)NC(=O)[C@H](CCCNC(=N)N)NC(=O)[C@H](CCC(=O)O)NC(=O)[C@@H](NC(=O)[C@H](C)NC(=O)[C@@H]1CCCNC(=O)C[C@H](NC(=O)[C@H](CCCNC(=N)N)NC(=O)CC[C@H](NC(=O)CCCCCCCCCCCCCCCCCCC(=O)O)C(=O)O)C(=O)NCC(=O)N[C@@H]([C@@H](C)O)C(=O)N[C@@H](C)C(=O)N[C@@H]([C@@H](C)O)C(=O)N1)[C@@H](C)O
B2: Compound 21 (peptide)
peptide: {C20 diacid-γGlu}-RDGTAT[Orn]ATERLA[Aad]FLQRSSF[Sar]A[NMeI]PSSTEVGSNT[Hyp]-NH2
modifications: lactam 2-7
SMILES: CC[C@H](C)[C@@H](C(=O)N1CCC[C@H]1C(=O)N[C@@H](CO)C(=O)N[C@@H](CO)C(=O)N[C@H](C(=O)N[C@@H](CCC(=O)O)C(=O)N[C@H](C(=O)NCC(=O)N[C@@H](CO)C(=O)N[C@@H](CC(N)=O)C(=O)N[C@H](C(=O)N1C[C@H](O)C[C@H]1C(N)=O)[C@@H](C)O)C(C)C)[C@@H](C)O)N(C)C(=O)[C@H](C)NC(=O)CN(C)C(=O)[C@H](Cc1ccccc1)NC(=O)[C@H](CO)NC(=O)[C@H](CO)NC(=O)[C@H](CCCNC(=N)N)NC(=O)[C@H](CCC(N)=O)NC(=O)[C@H](CC(C)C)NC(=O)[C@H](Cc1ccccc1)NC(=O)[C@H](CCCC(=O)O)NC(=O)[C@H](C)NC(=O)[C@H](CC(C)C)NC(=O)[C@H](CCCNC(=N)N)NC(=O)[C@H](CCC(=O)O)NC(=O)[C@@H](NC(=O)[C@H](C)NC(=O)[C@@H]1CCCNC(=O)C[C@H](NC(=O)[C@H](CCCNC(=N)N)NC(=O)CC[C@H](NC(=O)CCCCCCCCCCCCCCCCCCC(=O)O)C(=O)O)C(=O)NCC(=O)N[C@@H]([C@@H](C)O)C(=O)N[C@@H](C)C(=O)N[C@@H]([C@@H](C)O)C(=O)N1)[C@@H](C)O
B3: Compound 22 (peptide)
peptide: {C20 diacid-γGlu}-RDGTAT[Orn]ATERLA[Aad]FLTRSSF[Sar]A[NMeI]LSSTEVGSST[Hyp]-NH2
modifications: lactam 2-7
SMILES: CC[C@H](C)[C@@H](C(=O)N[C@@H](CC(C)C)C(=O)N[C@@H](CO)C(=O)N[C@@H](CO)C(=O)N[C@H](C(=O)N[C@@H](CCC(=O)O)C(=O)N[C@H](C(=O)NCC(=O)N[C@@H](CO)C(=O)N[C@@H](CO)C(=O)N[C@H](C(=O)N1C[C@H](O)C[C@H]1C(N)=O)[C@@H](C)O)C(C)C)[C@@H](C)O)N(C)C(=O)[C@H](C)NC(=O)CN(C)C(=O)[C@H](Cc1ccccc1)NC(=O)[C@H](CO)NC(=O)[C@H](CO)NC(=O)[C@H](CCCNC(=N)N)NC(=O)[C@@H](NC(=O)[C@H](CC(C)C)NC(=O)[C@H](Cc1ccccc1)NC(=O)[C@H](CCCC(=O)O)NC(=O)[C@H](C)NC(=O)[C@H](CC(C)C)NC(=O)[C@H](CCCNC(=N)N)NC(=O)[C@H](CCC(=O)O)NC(=O)[C@@H](NC(=O)[C@H](C)NC(=O)[C@@H]1CCCNC(=O)C[C@H](NC(=O)[C@H](CCCNC(=N)N)NC(=O)CC[C@H](NC(=O)CCCCCCCCCCCCCCCCCCC(=O)O)C(=O)O)C(=O)NCC(=O)N[C@@H]([C@@H](C)O)C(=O)N[C@@H](C)C(=O)N[C@@H]([C@@H](C)O)C(=O)N1)[C@@H](C)O)[C@@H](C)O
B4: Compound 23 (peptide)
peptide: {C20 diacid-γGlu}-RDGTAT[Orn]ATERLA[Aad]FLQRTTF[Sar]A[NMeI]LSSTEVGSNT[Hyp]-NH2
modifications: lactam 2-7
SMILES: CC[C@H](C)[C@@H](C(=O)N[C@@H](CC(C)C)C(=O)N[C@@H](CO)C(=O)N[C@@H](CO)C(=O)N[C@H](C(=O)N[C@@H](CCC(=O)O)C(=O)N[C@H](C(=O)NCC(=O)N[C@@H](CO)C(=O)N[C@@H](CC(N)=O)C(=O)N[C@H](C(=O)N1C[C@H](O)C[C@H]1C(N)=O)[C@@H](C)O)C(C)C)[C@@H](C)O)N(C)C(=O)[C@H](C)NC(=O)CN(C)C(=O)[C@H](Cc1ccccc1)NC(=O)[C@@H](NC(=O)[C@@H](NC(=O)[C@H](CCCNC(=N)N)NC(=O)[C@H](CCC(N)=O)NC(=O)[C@H](CC(C)C)NC(=O)[C@H](Cc1ccccc1)NC(=O)[C@H](CCCC(=O)O)NC(=O)[C@H](C)NC(=O)[C@H](CC(C)C)NC(=O)[C@H](CCCNC(=N)N)NC(=O)[C@H](CCC(=O)O)NC(=O)[C@@H](NC(=O)[C@H](C)NC(=O)[C@@H]1CCCNC(=O)C[C@H](NC(=O)[C@H](CCCNC(=N)N)NC(=O)CC[C@H](NC(=O)CCCCCCCCCCCCCCCCCCC(=O)O)C(=O)O)C(=O)NCC(=O)N[C@@H]([C@@H](C)O)C(=O)N[C@@H](C)C(=O)N[C@@H]([C@@H](C)O)C(=O)N1)[C@@H](C)O)[C@@H](C)O)[C@@H](C)O
B5: Compound 24 (peptide)
peptide: {C20 diacid-γGlu}-RDGTAT[Orn]ATERLA[Aad]FLQRTTF[Sar]A[NMeI]PSSTEVGSNT[Hyp]-NH2
modifications: lactam 2-7
SMILES: CC[C@H](C)[C@@H](C(=O)N1CCC[C@H]1C(=O)N[C@@H](CO)C(=O)N[C@@H](CO)C(=O)N[C@H](C(=O)N[C@@H](CCC(=O)O)C(=O)N[C@H](C(=O)NCC(=O)N[C@@H](CO)C(=O)N[C@@H](CC(N)=O)C(=O)N[C@H](C(=O)N1C[C@H](O)C[C@H]1C(N)=O)[C@@H](C)O)C(C)C)[C@@H](C)O)N(C)C(=O)[C@H](C)NC(=O)CN(C)C(=O)[C@H](Cc1ccccc1)NC(=O)[C@@H](NC(=O)[C@@H](NC(=O)[C@H](CCCNC(=N)N)NC(=O)[C@H](CCC(N)=O)NC(=O)[C@H](CC(C)C)NC(=O)[C@H](Cc1ccccc1)NC(=O)[C@H](CCCC(=O)O)NC(=O)[C@H](C)NC(=O)[C@H](CC(C)C)NC(=O)[C@H](CCCNC(=N)N)NC(=O)[C@H](CCC(=O)O)NC(=O)[C@@H](NC(=O)[C@H](C)NC(=O)[C@@H]1CCCNC(=O)C[C@H](NC(=O)[C@H](CCCNC(=N)N)NC(=O)CC[C@H](NC(=O)CCCCCCCCCCCCCCCCCCC(=O)O)C(=O)O)C(=O)NCC(=O)N[C@@H]([C@@H](C)O)C(=O)N[C@@H](C)C(=O)N[C@@H]([C@@H](C)O)C(=O)N1)[C@@H](C)O)[C@@H](C)O)[C@@H](C)O

Tests used:
[1] = target: recombinant human calcitonin receptor (hCT-R) (human), P30988; experiment: cell-based or functional assay
Sequence of recombinant human calcitonin receptor (hCT-R) (human), P30988 (P30988 25-474): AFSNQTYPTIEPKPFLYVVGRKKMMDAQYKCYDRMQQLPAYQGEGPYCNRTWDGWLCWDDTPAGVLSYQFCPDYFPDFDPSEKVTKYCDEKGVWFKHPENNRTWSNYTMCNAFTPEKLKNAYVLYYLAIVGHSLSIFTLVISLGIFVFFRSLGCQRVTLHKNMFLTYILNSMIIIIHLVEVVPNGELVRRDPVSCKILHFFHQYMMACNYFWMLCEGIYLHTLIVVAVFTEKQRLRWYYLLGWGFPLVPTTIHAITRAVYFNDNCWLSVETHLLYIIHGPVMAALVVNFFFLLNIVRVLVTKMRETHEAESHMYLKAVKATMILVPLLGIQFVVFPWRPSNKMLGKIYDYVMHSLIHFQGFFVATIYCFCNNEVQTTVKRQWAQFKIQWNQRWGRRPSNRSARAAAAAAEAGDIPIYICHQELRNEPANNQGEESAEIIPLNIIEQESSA

[2] = target: recombinant human amylin 3 receptor (hAMYR3) (human), P30988; experiment: cell-based or functional assay
Sequence of recombinant human amylin 3 receptor (hAMYR3) (human), P30988 (P30988 25-474, chain 1 of 2): as the sequence (P30988 25-474) above
Sequence of recombinant human amylin 3 receptor (hAMYR3) (human), P30988 (O60896 24-148, chain 2 of 2, further chain): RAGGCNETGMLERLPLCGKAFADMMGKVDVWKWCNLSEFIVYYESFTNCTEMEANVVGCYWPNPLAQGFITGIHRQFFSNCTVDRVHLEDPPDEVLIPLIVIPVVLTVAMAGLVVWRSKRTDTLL

Binder	hCT-R EC50 [nM] (cAMP formation, 1321N1 cells expressing hCT-R) [1]	hAMYR3 EC50 [nM] (cAMP formation, 1321N1 cells expressing hAMYR3) [2]
B1	0.009	0.003
B2	0.037	0.01
B3	0.474	0.051
B4	1.93	0.706
B5	0.038	0.013
